Data taken from patent US20210395344A1 (TWIST BIOSCIENCE, published 2021).
Where two headings read alike, the source gives them in different places.

Experiments:
Assay in all cases: phage ELISA
[1] = molecular target: T1, Acro COVID S1 (S1N-C82E8) (SARS-CoV-2, UniProt P0DTC2 16-685)
T1 construct: domain: S1

[2] = molecular target: T1, Acro COVID S1 (S1N-C82E8); remark: listed apart in the source
[3] = molecular target: T2, Acro COVID S1 (S1N-C82E8) (SARS-CoV-2, UniProt P0DTC2 16-685)
T2 construct: domain: S1 (subunit 1)

B1: 1-32 (antibody, V domains shown)
VH: EVQLLESGGGLVQPGGSLRLSCAASGFTFSSYAMYWVRQAPGKGLEWVSAISGSGGSTFYADSVKGRFTISRDNSKNTLYLQMNSLRAEDTAVYYCTRPPYGDYGDYWGQGTLVTVSS
VL: QSALTQPASVSGSPGQSITISCTGTSSDVGGYNLVSWYQQHPGKAPKLMIYEGNKRPSGVSNRFSGSKSGNTASLTISGLQAEDEADYYCCSYAGSSTFPVVFGGGTKLTVL
notes: also called variant 1-32
- ELISA fold over background [1]: 11.5 fold over background
- ELISA fold over background [2]: 11.5 fold over background

B2: 1-29 (antibody, V domains shown)
VH: EVQLLESGGGLVQPGGSLRLSCAASGFTFSSYAMYWVRQAPGKGLEWVSAISGSAGSTYYADSVKGRFTISRDNSKNTLYLQMNSLRAEDTAVYYCARDTNDFWSGYSIFDPWGQGTLVTVSS
VL: QSALTQPASVSGSPGQSITISCTGTSSDIGSYNLVSWYQQHPGKAPKLMIYEGTKRPSGVSNRFSGSKSGNTASLTISGLQAEDEADYYCCSYAGSRTYVFGGGTKLTVL
notes: also called variant 1-29
- ELISA fold over background [1]: 1.1 fold over background
- ELISA fold over background [2]: 1.1 fold over background

B3: SARS-CoV-2 variant 1-17 (antibody, V domains shown)
VH: EVQLLESGGGLVQPGGSLRLSCAASGFTFSSYAMYWVRQAPGKGLEWVSAISGSAGSTYYADSVKGRFTISRDNSKNTLYLQMNSLRAEDTAVYYCARDTNDFWSGYSIFDPWGQGTLVTVSS
VL: QSALTQPASVSGSPGQSITISCTGTSSDIGSYNLVSWYQQHPGKAPKLMIYEGTKRPSGVSNRFSGSKSGNTASLTISGLQAEDEADYYCCSYAGSRTYVFGGGTKLTVL
- specificity ELISA, fold over background [3]: 25.1 fold over background

B4: SARS-CoV-2 variant 1-29 (antibody, V domains shown)
VH: EVQLLESGGGLVQPGGSLRLSCAASGFTFSSYAMYWVRQAPGKGLEWVSAISGSAGSTYYADSVKGRFTISRDNSKNTLYLQMNSLRAEDTAVYYCARDTNDFWSGYSIFDPWGQGTLVTVSS
VL: QSALTQPASVSGSPGQSITISCTGTSSDIGSYNLVSWYQQHPGKAPKLMIYEGTKRPSGVSNRFSGSKSGNTASLTISGLQAEDEADYYCCSYAGSRTYVFGGGTKLTVL
- specificity ELISA, fold over background [3]: 1.1 fold over background

B5: 1-17 (antibody, V domains shown)
VH: EVQLLESGGGLVQPGGSLRLSCAASGFTFSSYAMYWVRQAPGKGLEWVSAISGSAGSTYYADSVKGRFTISRDNSKNTLYLQMNSLRAEDTAVYYCARDTNDFWSGYSIFDPWGQGTLVTVSS
VL: QSALTQPASVSGSPGQSITISCTGTSSDIGSYNLVSWYQQHPGKAPKLMIYEGTKRPSGVSNRFSGSKSGNTASLTISGLQAEDEADYYCCSYAGSRTYVFGGGTKLTVL
notes: also called variant 1-17
- ELISA fold over background [1]: 25.1 fold over background
- ELISA fold over background [2]: 25.1 fold over background

B6: 1-42 (antibody, V domains shown)
VH: EVQLLESGGGLVQPGGSLRLSCAASGVTFSSYAMSWVRQAPGKGLEWVSAITGSGGSTYYADSVKGRFTISRDNSKNTLYLQMNSLRAEDTAVYYCAKHGSGTIFGVVIAKYYFDYWGQGTLVTVSS
VL: QSALTQPASVSGSPGQSITISCTGTSSDVGRYNLVSWYQQHPGKAPKLMIYEGGKRPSGVSNRFSGSKSGNTASLTISGLQAEDEADYYCCSYASSSTLVFGGGTKLTVL
notes: also called variant 1-42
- ELISA fold over background [1]: 22.7 fold over background
- ELISA fold over background [2]: 22.7 fold over background

B7: SARS-CoV-2 variant 1-37 (antibody, V domains shown)
VH: EVQLLESGGGLVQPGGSLRLSCAASGFTFTSYAMNWVRQAPGKGLEWVTAISGSGGSTFYADSVKGRFTISRDNSKNTLYLQMNSLRAEDTAVYYCTRPPYGDYGDYWGQGTLVTVSS
VL: QSALTQPASVSGSPGQSITISCTGTSSDIGSYNLVSWYQQHPGKAPKLMIYEGTKRPSGVSNRFSGSKSGNTASLTISGLQAEDEADYYCCSYAGSRTYVFGGGTKLTVL
- specificity ELISA, fold over background [3]: 11.6 fold over background

B8: 1-23 (antibody, V domains shown)
VH: EVQLLESGGGLVQPGGSLRLSCAASGFTFSSYAISWVRQAPGKGLEWVSIISGSGGSTYYADSVKGRFTISRDNSKNTLYLQMNSLRAEDTAVYYCAREGYRDYLWYFDLWGQGTLVTVSS
VL: QSALTQPASVSGSPGQSITISCTGTSNDVGSYNLVSWYQQHPGKAPKLMIYEGNKRPSGVSNRFSGSKSGNTASLTISGLQAEDEADYYCCSYAGSYTVFGGGTKLTVL
notes: also called variant 1-23
- ELISA fold over background [1]: 5.1 fold over background
- ELISA fold over background [2]: 5.1 fold over background

B9: 1-24 (antibody, V domains shown)
VH: EVQLLESGGGLVQPGGSLRLSCAASGFTFSSYAMNWVRQAPGKGLEWVSIISGSGGSTYYADSVKGRFTISRDNSKNTLYLQMNSLRAEDTAVYYCAREGYRDYLWYFDLWGQGTLVTVSS
VL: QSALTQPASVSGSPGQSITISCTGTSSDVGYYNLVSWYQQHPGKAPKLMIYEGNKRPSGVSNRFSGSKSGNTASLTISGLQAEDEADYYCCSYAGGSVVFGGGTKLTVL
notes: also called variant 1-24
- ELISA fold over background [1]: 12.9 fold over background
- ELISA fold over background [2]: 12.9 fold over background

B10: 1-2 (antibody, V domains shown)
VH: EVQLLESGGGLVQPGGSLRLSCAASGFTFSSQAMSWVRQAPGKGLEWVSAISGSGGGTYYADSVKGRFTISRDNSKNTLYLQMNSLRAEDTAVYYCAKDRRFGEFDPWGQGTLVTVSS
VL: QSALTQPASVSGSPGQSITISCTGTSSGVGSYNLVSWYQQHPGKAPKLMIYEGIKRPSGVSNRFSGSKSGNTASLTISGLQAEDEADYYCCSYAGSSSFVVFGGGTKLTVL
notes: also called variant 1-2
- ELISA fold over background [1]: 1.8 fold over background
- ELISA fold over background [2]: 1.8 fold over background

B11: 1-10 (antibody, V domains shown)
VH: EVQLLESGGGLVQPGGSLRLSCAASGFTFSSYDMSWVRQAPGKGLEWVSVISGSGGSTYYADSVKGRFTISRDNSKNTLYLQMNSLRAEDTAVYYCAKGPLVGWYFDLWGQGTLVTVSS
VL: QSALTQPASVSGSPGQSITISCTGTSSNVGSYNLVSWYQQHPGKAPKLMIYEGTKRPSGVSNRFSGSKSGNTASLTISGLQAEDEADYYCCSYAGSSSFVVFGGGTKLTVL
notes: also called variant 1-10
- ELISA fold over background [1]: 17.4 fold over background
- ELISA fold over background [2]: 17.4 fold over background

B12: 1-27 (antibody, V domains shown)
VH: EVQLLESGGGLVQPGGSLRLSCAASGFTFSSYAMTWVRQAPGKGLEWVSAISGSGGGTYYADSVKGRFTISRDNSKNTLYLQMNSLRAEDTAVYYCASSSSWQFDYWGQGTLVTVSS
VL: QSALTQPASVSGSPGQSITISCTGTSSYVGHYNLVSWYQQHPGKAPKLMIYEGSRRPSGVSNRFSGSKSGNTASLTISGLQAEDEADYYCCSYAGSYTHYVFGGGTKLTVL
notes: also called variant 1-27
- ELISA fold over background [1]: 1.5 fold over background
- ELISA fold over background [2]: 1.5 fold over background

B13: 1-47 (antibody, V domains shown)
VH: EVQLLESGGGLVQPGGSLRLSCAASGFTFSSQAMSWVRQAPGKGLEWVSAISGSGGGTYYADSVKGRFTISRDNSKNTLYLQMNSLRAEDTAVYYCAKDRRFGEFDPWGQGTLVTVSS
VL: QSALTQPASVSGSPGQSITISCTGTSSGVGSYNLVSWYQQHPGKAPKLMIYEGIKRPSGVSNRFSGSKSGNTASLTISGLQAEDEADYYCCSYAGSSSFVVFGGGTKLTVL
notes: also called variant 1-47
- ELISA fold over background [1]: 8.1 fold over background
- ELISA fold over background [2]: 8.1 fold over background

B14: 1-31 (antibody, V domains shown)
VH: EVQLLESGGGLVQPGGSLRLSCAASGFTFSSYAMNWVRQAPGKGLEWVSAISGSGGSTFYADSVKGRFTISRDNSKNTLYLQMNSLRAEDTAVYYCTRPPYGDYGDYWGQGTLVTVSS
VL: QSALTQPASVSGSPGQSITISCTGTSSDVGKYNLVSWYQQHPGKAPKLMIYEGSQRPSGVSNRFSGSKSGNTASLTISGLQAEDEADYYCCSYAGSRTPVVFGGGTKLTVL
notes: also called variant 1-31
- ELISA fold over background [1]: 30.4 fold over background
- ELISA fold over background [2]: 30.4 fold over background

B15: 1-30 (antibody, V domains shown)
VH: EVQLLESGGGLVQPGGSLRLSCAASGFTFSSYAMTWVRQAPGKGLEWVSAISGSGGSTFYADSVKGRFTISRDNSKNTLYLQMNSLRAEDTAVYYCTRPPYGDYGDYWGQGTLVTVSS
VL: QSALTQPASVSGSPGQSITISCTGTSRDVGSYNLVSWYQQHPGKAPKLMIYEGTKRPSGVSNRFSGSKSGNTASLTISGLQAEDEADYYCCSYAGSRTPVVFGGGTKLTVL
notes: also called variant 1-30
- ELISA fold over background [1]: 16.8 fold over background
- ELISA fold over background [2]: 16.8 fold over background

B16: 1-7 (antibody, V domains shown)
VH: EVQLLESGGGLVQPGGSLRLSCAASGFTFSSYDMSWVRQAPGKGLEWVSVISGSGGSTYYADSVKGRFTISRDNSKNTLYLQMNSLRAEDTAVYYCAKGPLVGWYFDLWGQGTLVTVSS
VL: QSALTQPASVSGSPGQSITISCTGTSSDFGSYNLVSWYQQHPGKAPKLMIYEGNKRPSGVSNRFSGSKSGNTASLTISGLQAEDEADYYCCSYAGSSTFVVFGGGTKLTVL
notes: also called variant 1-7
- ELISA fold over background [1]: 6.8 fold over background
- ELISA fold over background [2]: 6.8 fold over background

B17: 1-5 (antibody, V domains shown)
VH: EVQLLESGGGLVQPGGSLRLSCAASGFTFSSQAMSWVRQAPGKGLEWVSAISGSGGGTYYADSVKGRFTISRDNSKNTLYLQMNSLRAEDTAVYYCAKDRRFGEFDPWGQGTLVTVSS
VL: QSALTQPASVSGSPGQSITISCTGTSSGVGSYNLVSWYQQHPGKAPKLMIYEASKRPSGVSNRFSGSKSGNTASLTISGLQAEDEADYYCCSYAGSYTFAVFGGGTKLTVL
notes: also called variant 1-5
- ELISA fold over background [1]: 1.5 fold over background
- ELISA fold over background [2]: 1.5 fold over background

B18: 1-3 (antibody, V domains shown)
VH: EVQLLESGGGLVQPGGSLRLSCAASGFTFSSQAMSWVRQAPGKGLEWVSAISGSGGGTYYADSVKGRFTISRDNSKNTLYLQMNSLRAEDTAVYYCAKDRRFGEFDPWGQGTLVTVSS
VL: QSALTQPASVSGSPGQSITISCTGISSDVGSYNLVSWYQQHPGKAPKLMIYEGTKRPSGVSNRFSGSKSGNTASLTISGLQAEDEADYYCCSYAGSSSFVVFGGGTKLTVL
notes: also called variant 1-3
- ELISA fold over background [1]: 1.6 fold over background
- ELISA fold over background [2]: 1.6 fold over background

B19: 1-28 (antibody, V domains shown)
VH: EVQLLESGGGLVQPGGSLRLSCAASGFTFSSYGMSWVRQAPGKGLEWVSAISGSGGGTYYADSVKGRFTISRDNSKNTLYLQMNSLRAEDTAVYYCASSSSWQFDYWGQGTLVTVSS
VL: QSALTQPASVSGSPGQSITISCTGTSSGVGSYNLVSWYQQHPGKAPKLMIYEGSQRPSGVSNRFSGSKSGNTASLTISGLQAEDEADYYCCSYAGSSTHYVFGGGTKLTVL
notes: also called variant 1-28
- ELISA fold over background [1]: 1 fold over background
- ELISA fold over background [2]: 1 fold over background

B20: 1-4 (antibody, V domains shown)
VH: EVQLLESGGGLVQPGGSLRLSCAASGFTFSSQAMSWVRQAPGKGLEWVSAISGSGGGTYYADSVKGRFTISRDNSKNTLYLQMNSLRAEDTAVYYCAKDRRFGEFDPWGQGTLVTVSS
VL: QSALTQPASVSGSPGQSITISCTGTSSDVGTYNLVSWYQQHPGKAPKLMIYEGSQRPSGVSNRFSGSKSGNTASLTISGLQAEDEADYYCCSYAGSSSFVVFGGGTKLTVL
notes: also called variant 1-4
- ELISA fold over background [1]: 1 fold over background
- ELISA fold over background [2]: 1 fold over background
